# Laboratory results from the RNAGym collection of RNA variant scans (doi:10.1073/pnas.2313332121).
# B1: TPR t1 (parent)
# chain: GACCAAUCUGCCCUCAGAGCUCGAGAACAUCUUCGGAUGCAGAGGAGGCAGGCUUCGGUGGCGCGAUAGCGCCAACGUCCUCAACCUCCAAUGCAUCCCACCACAUGAUGAUGCCUGAAGAGCCUUGGUUUUUUG
# Variants of: B1
# Test: polymerase ribozyme fitness, log enrichment relative to wild type (log ratio); higher = more active; in vitro selection for triplet polymerase activity
# Method in brief: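 Mutant libraries for each subunit of a heterodimeric triplet polymerase ribozyme were made by PCR and then transcribed. Each library underwent one round of in vitro selection in triplicate: annealing with a biotinylated primer, the partner subunit and triplets, frozen incubation at −7 °C, gel excision of extended constructs, streptavidin-bead capture and RT-PCR. Input and output libraries were Illumina-sequenced, and only genotypes with ≥10 input reads and ≥1 read per output were kept. Fitness is the logarithm, base 2, of genotype enrichment over wild-type enrichment, computed from inverse-variance-weighted replicate averages.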
row,Variant,polymerase ribozyme fitness (log ratio)
1,GACCAAUAUGCGCUCAGAGCUCGAGAACAUCUUCGGAUGCAGAGGAGGCAGGCAUCGGUGGCGCGAUAGCGCCAACGUCCUCAACCUCCAAUGCAUCCCACCACAUGAUGAUGCCUGAAGAGCCUUGGUUUUUUG [C8A C12G U54A],0.0252
2,GACCAAUCUGCCCUCAGAGCUCGAGAACAUCUUCGGAUGCAGAGGAGCCAGGCUUCGGUAGCGCGAUAGCGCCAACGUCCUCAACCUCCAAUACAUCCCACCACAUGAUGAUGCCUGAAGAGCCUUGGUUUUUUG [G48C G60A G93A],-0.836
3,GACCAAUCUGCCCUCAGAGCUCGAGAUCAUCUUCGGAUGCAGAGGAGGCAGGCUUCGGCGGCGCGAUAGCGCCAACGUCCUCAACCUCCAAUGCAUCCCACCACAUGAUGAUGCCUGAAGAGCCUUGGUUUUUUG [A27U U59C],-3.53
4,GACCAAUCUGCCCUCAGAGCUCGAGAACAUCUUCGGAUGCAGAGGAGGCAGGCUUCGGUCGCGCGAUAGCGCCAACGUCCUCAACCUCCAAUGCAUCCCACCACAUGAUUAUGCCUGAAGAGCCUUGGUUUUUUG [G60C G110U],-1.71
5,GACCAAUCUGCCUUCAGAGCUCGAGAACAUCUUCGGAUGCAGAGGAGGCAUGCUUCGGUGACGCGAUAGCGCCAACGUCCUCAACCUUCAAUGCAUCCCACCACAAGAUGAUGCCUGAAGAGCCUUGGUUUUUUG [C13U G51U G61A C88U U106A],-2.6
6,GACCAAUCUGCCCUCAGAGCUCGAGACCAUCUUCGGAUGCAGAGGAAGCAGGCGUCUGUGGCGCGAUAGCGCCAACGUCCUCAACCUCCAAUGCAUCCCACCACAUGAUGAUGCCUGAAGAGCCUUGGUUUUUUG [A27C G47A U54G G57U],-1.6
7,GACCGAUCUGCCCUCAGAGCUCGAGAACAUCUUCGGAUGCAGAGGAGUCAGGCUUCGGUGGCGCGAUAACGCCAACGUCCUCAACCUCUAAUGCAUCUCACCACAUGAUGAUGCCUGAAGGGCCUUGGUUUUUUG [A5G G48U G69A C89U C98U A121G],-3.81
8,GACCAAACUGCCCUCAGAGCUCGAGAACAUCUUCGGAUGCAGUGGAGGCAGGCUUCGGUGGCGCGAUAGCGCCAACGUCCUCAACCUCCAAUGCAUCCCACCACAUGAUGAUGCCUGAAGAGCCUUGGUUUUUUG [U7A A43U],-1.13
9,GACUAAUCUGCCCUCAGAGCUCGAGAACAUCUUCGGAUGCAGACGAGGCAGGCUUCGGUGGCGUGAUAGCGCCAACGUCCUCAACCUCCAAUGCAUCCCACCACAUGAUGAUGCCUGAUGAGCCUUGGUUUUAUG [C4U G44C C64U A119U U133A],-2.68
10,GACCAAUCUGCCAUCAGAGCUCGAGAACAUCUUCGGAUGCAGAGGACGCAGGCUUCGGUGGCGCGAUAGCGCCAACGUCCUCAACCUCCAAUGCAUCCCACCACAUGAUGAUGCCUGAAGAGCCUUGGUUUUUUG [C13A G47C],-3.14
11,GACCAAUCUGCCCUCAGAGCUCGAGAACAUCUUCGGAUGCAGAGGAGGCAGGCUUCGGUGGCGCGAUAGCGCCAACCUCCUCAACCUCCAAUGCAACCCACCACAUGAUGAUGCCUGAAGAGCCUUGGUUUUUUG [G77C U96A],-1.58
12,GACGAAUCUGCCCUCAGAGCCCGAGAACAUCUUCGGAUGCAGAGAAGGCAGGCUUCGGUGGCGCGAUAGCGCCAACGACCUCAACCUCCAAUGCAUCCCACCACAUGAUGAUGCCUGAAGAGCGUUGGUUUUUUG [C4G U21C G45A U78A C124G],0.886
13,GACCAAUCUGCCCUCAGAGCUCGAGAACAUCUUCGGAUGCAGAGGAGGCAGGCUUCUGUAGCGCGAUAGCGCCAACGUCCUCAACCUCCAAUGCAUCCCACCACAUGAUGAUGACUGAAGAGCCUUGGAUUUUUG [G57U G60A C114A U129A],-3.12
14,GACCAAUAUGCCCUCAGAGCUCGAGAACAUCUUCGGAUGCAGAGGAGGCAGGCUUCGGUGGCGCGAUAGCGCCAACGUCCUCAACCUCCAAUGCAUCCCCCCACAUGAUGAUGCCUGAAGAGCCUUGGUUUUUUG [C8A A100C],-0.0614
15,GACCAAUCUGCCCUCAGAGCUCGAGAACAUGUUCGGAUGCAGAGGAGGCAGGCUUCGGUGGCGCGAUAGCGACAACGUCCUCAACCUCCAAUGCAUCCCACCACAUGAUGAUGCCUGAAGAGCCUUGGUUUUUUG [C31G C72A],-6.86
16,GACCAAUCUGCCCUCAGAGCGCGAGAACAUUUUCGGAUGCAGAGGAGGCAGGCUUCGGUGGCGCGAUAGCGCCAACGCCCUCAAACUCCAAUGCAUCCCACCACAUGAUGAGGCCUGAAGAGCCUUGGUUUUUUG [U21G C31U U78C C85A U112G],-5.44
17,GACCAAUCUGCCCUCAGAGCUCGAGAACAUCUUCGGAUGCAGAGGAGGCAGGCUUCGGUGGCUCGAUACCGCCAACGUCCUCAACCUCCAAUGCAUCCCACCACAUGAUGAUGCCUGAAGAGCCUUGGUUUUUUG [G63U G69C],-4.76
18,GACCAAUCUGCCCUCAGAGCUCGAGAACAUCUUCGGCUGCAGAGGAGGCAGGCUUCGGUGGCGCGAUAGCGCCAACGUCCUCAACCUCCAGUGCAUCCCACCACAUGAUGAUGCCUGAAGAGCCUUGGUUUUUUG [A37C A91G],-2.03
19,GACCAAUCUGCCCUCAGAGCUCGAGAACAUCUUCGGAUGCAGAGGAGGCAGGCUUCGGUGGCGCGAUAGCGCCAACGUCCUCAACCUCCAAUGCAUCCCACAACAUGAUGAUGCCUGAAGUGCCUUGGUUCUUUG [C102A A121U U131C],0.0525
20,GACCAAUCUGCCCUCAGAGCUCGAGAACAUCUUCGGAUGCAGAGGAGGCAGGCUUCGGUGGCGCGAUAGCGCCAACGUCCUCAACCUCCAAUACAUCUCACCACAUGAUGAUGCCUGAAGAGCCUUGGUUUUUUG [G93A C98U],-1.72
21,GACCAAUCUGCCCUCAGAGCUCGAGAACAUCUUCGGAUGCAGAGGAGGCAGGAUUCGGUGGCGCGAUAGCGCCAACGUCCUCAACCUCCAAUCCAUCCCACCACAUGAUGAUGCCUGAAGAGCCUUGGUUUUUUG [C53A G93C],-0.396

row,Variant,polymerase ribozyme fitness (log ratio)
1,GACCAAUUUGCCCUCAGAGCUCGAGAACAUCUUCGGAUGCAGAAGAGGCAGGCUUCGGUGGCGCGAUAGCGCCAACGUCCUCAACCUCCAAUGCAUCCCACCAUAUGAUGAUGCCUGAAGAGCCUUGGUUUUUUG [C8U G44A C104U],0.0147
2,GACCAAUCUGCCCUCAGAGCUCGAGAACAUCUUCGGAUGCAGAGGAGGCAGGCUUCGGUGGCGCGAUAGCGCCAACGUCCUCAACCUCCAAUGCAUCCCACCACAUGAUGAUGCCUGAACAGCCUUGGUUUUUUU [G120C G135U],-0.76
3,GACCAAUCUUCCCUCAGAGCUCGAGAACAUCUUCGGAUGCAGAGGAGGCAGGCUUCGGUGGCGCGAUAGCGCCAACGUCCUCAACCUCCAAUGCAUCCCACCACAAGAUGAUGCCUGAAGAGCCUUGGUUUUUUG [G10U U106A],0.263
4,GAUCAAUCUGCCCUCAGAGCUCGAGAACUUCUUCGGAUGCAGAGGAGGCAGGCUUCGGUGGCGCGAUAGCGCCAACGUCCUCAACCUCCAAUGCAUCCCACCACAUGAAGAUGCCUGAAGAGCCUUGGUUUUUUG [C3U A29U U109A],0.179
5,GACCAAUCUGCCCUCAGAGCUCGAGAACAUCUUCGGAUGCAGAGCAGGCAGGCUUCGGUGGCGCGAUAGCGCCAACGUCCUCAACCUCCAAUGCAUCCUACCACAUGAUGAUGCCUGAAGAGCCUUGGUUUUUUG [G45C C99U],-4.05
6,GACCAAUCUGCCCUCAGAGCUCGAGAACAUCUUCGGAUGCAGAGGAGGCAGGCUACGGUGGCGCGAUAGCGCCAACGUCCUCGACCUCCAAUGCAUCCCACCACAUGAUGAUGCCUGAAGAGCCUUGGUUUUUUG [U55A A83G],-0.95
7,GACCAAUCUGCCCUCAGAGCUCGAGAACAUCUUCGGAUGCAGACGAGGCAUGCUUCGGUUGCGCGAUAGCGCCAACGUCCUCAACCUCCAAUGCAUCCCACCACAUGAUGAUGCCUGAAGAGUCUUGGUUUUUUG [G44C G51U G60U C123U],-2.6
8,GACCAAUCUGCCCUCAGAGCUCGAGAACAUCUUCGGAUGCAGAGGAGGCAGGCUUCGGUAGCGCGAUAGCGCCAACGUCCUCAACCUCAAAUGCAUCCCACCACAUGAUGAUGCCGGAAGAGCCUUGGUUUUUUG [G60A C89A U116G],-4.84
9,GACCAAUCUGCCCUCAGAGCUCGAGAACAUCUUCGGAUGCAAAGGAGGCAGGCUUAGGUGGCGCGAUAGCGCCAACGUCCUCAACCUCCAAUGCAGCCCACCACAUGAUGAUGCCUGAAGAGCCUUGGUUUUUUG [G42A C56A U96G],-2.79
10,GACCAAUCUGCCCUCAGAGCUCGAGAACAUCUUCGGAUGCAGAGGAGGGAGGCUUCGGUGGCGCGAUAACGCCAACGUCCUCAACCUCCAAUGCAUCCCACCACAUGAUGAUGCCUGAUGAGCCUUGGUUUUAUG [C49G G69A A119U U133A],-3.06
11,GACCAAUCUGCCCUCAGAGCUCGAGAACAUCUUCGGAUGCAGAGGAGGCAGGCUUCGGUGGCGCGAUAGCGCCAACGUCCUCAACCUCCAACGCAUCCCACCACAUGAUGAAGCCUGAAGAGCCUUGGUUUUUUG [U92C U112A],-0.53
12,GACCAAUCUGCCCUCAGAGCUCGAGAACAUCUUCGGAUGCAGAGGAUGCAGGCUUCGGUGGCGCGAUGGCGCCAACGUCCUCAACCUCCAAUGCAUCCCACCAUAUGAUGAUGCCUGAAGAGCCUUGGUUUUUUG [G47U A68G C104U],-4.55
13,GACUAAUCUGCCCUCGGAGCUCGAGAACAUCUUCGGAUGCAGAGGAGGCAGGCUUCGGUCGCGCGAUAGCGCCAACGUACUCAACCUCCAAUGCAUCCCACCACAUGAUGAUGCCUGAAGAGCCUUGGUUUUUUG [C4U A16G G60C C79A],-4.11
14,GACCAAUCUGCCCUCAGAGCUCGAGAACAUCUUCGGAUGGAGAGGAGGUAGGCUUCGGUGGCGCGAUAGCGCCAACGUCCUCAUCCUCCAAUGCAUCCCACCACAUGAUGAUGCCUGAAGAGCCUUGGUUUUUUG [C40G C49U A84U],-2.42
15,GACCAAUCAGCCCUCAGAGCUCGAGAACAUCUUCGGAUGCAGAGGAGGCAGGCUUCGGUGGCGCGAUAGCGCCAACGUCCUCAACCUCCAAUGCAUCCCACCACAUGAUGUUGCCUGAAGAGCCUUGGUUUUUUG [U9A A111U],-1.46
16,GACCAAUCUGCCCUCAGAGCUCGAGAACAUCUUCGGAUGCAGAGGAGGCAGGUUUCGGUGGCGCGAUAGCGCCAACGUCCUCAACCUCCGAUGCGUCCCACCACAUGAUGAUGCCUGAAGAGCCUUGGUUUUUUG [C53U A90G A95G],0.749
17,GACCAAUCUGCCCUCAGAGCUCGAGAACAUCUUCGGAUGCAGAGGAGGCAGGCUUCGGUGGCGCGAUAGCCCCAACGUCCUCAACCUCCAAUGCAUCCCACCACAUGAUGAUGACUGAAGAGCCUUGGUUUUUUG [G71C C114A],-2.75
18,GACCAAUGUGCCCUCAGAGCUCGAGAACAUCUUCGGAUGCAGAGGAGCCAGGCUUCGGUGGCGCGAUAGCGCCAACGUCCUCAACCUCCUAUGCAUCCCACCACAUGAUGAAGCCUGAAGAGCCUUGGUUUUUUG [C8G G48C A90U U112A],0.378
19,GACCAAUCUGCCCUCAGAGCUCGACAACAUCUUCAGAUGCAGACGAGGCAGGCUUCGGUGGCGCGAUAGCGCCAACGUCCUCAACCUCCAAUGCAUCCCACCACAUGAUGAUGGCUGAAGAGCCUUGGUUUUUUG [G25C G35A G44C C114G],-5.95
20,GACCAAUCUGCCCUCAGAGCUCGAGAACAUCUUCUGAUGCAGAGGAGGCAGGCUUCGGUGGCGCGAUAGCGCCAACGUCCUCAACCUCCAAUGCAUCCCUCCACAUGAUGAUGCCUGAAGAGCCUUGGUUUUUUG [G35U A100U],-5.66
21,GACCAAUCUUCCCUCAGAGCUCGAGAACAUCUUCGGAUGCAGAGGAGGCAGGCUUCGGUGGCGCGAUAGCGCCAACGUCCUGAACCUCCAAUGCAUCCCACCACAUGAUGAUGCCUCAAGAGCCUUGGUUUUUUG [G10U C82G G117C],-4.93
